This is an account of results in the supplement of paper PMC9170038.

In the series the test system is MS2 coat protein. Kind of series: apparent KD of MS2 coat protein; higher = weaker reporter binding. Particulars: Eterna round: R107. The method in brief:
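Apparent KD per design is the median of normalised cluster binding-curve fits. Designed RNA switches transcribed on-chip from Illumina sequencing clusters were titrated with SNAP-549-labelled MS2 coat protein in twofold steps from 0.7 or 1.5 nM to 3 µM, with 0.8–1.5 h down to 10–20 min per step. Buffer: 100 mM Tris-HCl pH 7.5, 80 mM KCl, 4 mM MgCl2, without or with constant ligand.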

Where [1] appears, read: input ligand: theophylline 20 uM.
Where [2] appears, read: input ligand: theophylline 2 mM.
Where [3] appears, read: input ligand: tryptophan 2.4 mM.

For the sequence “CCCUGGGUGGGAAGGAGCGCAUAUUCAACAUGAGGAUCACCCAUGUACAGACGUGAGUCAUUGCAGGUAGGUCGCCCACCCAGGG [SS-ArgB21]”, the “apparent KD of MS2 coat protein” value was determined as 12.9 nM (input ligand: arginine 13.2 mM); 15.7 nM (input ligand: none); 20.4 nM under setting [1]; 14.8 nM under setting [2]; 15.5 nM under setting [3].

With “CCGCACAUGAGGAUCACCCAUGUCAGGGAUACCAGCCCAGACAUGGGCCCUUGGCAGCUUUGUAGCUGACGAAAGUCAGCAGCGG [Omei Theo A SS A v2]”, the “apparent KD of MS2 coat protein” value is, setting by setting: (input ligand: arginine 13.2 mM) 17.6 nM; (input ligand: none) 33.6 nM; under setting [1], 62.3 nM; under setting [2], 101 nM; under setting [3], 59.2 nM.

For “CCUAUGCAGUCGGCCGCCACUGAACAUGAGGAUCACCCAUGUAAUUAAAAUUAAGAUCCUGAAAUCAGGACCGGGACUGUAUAGG [Ex Tryptophan B 4]”, the “apparent KD of MS2 coat protein” value is, setting by setting: (input ligand: arginine 13.2 mM) 25.5 nM; (input ligand: none) 1520 nM; under setting [1], 280 nM; under setting [2], 140 nM; under setting [3], 196 nM.

On to “CCUCGGGACCGAAGGAGCGAGAUAACAACAAUGGGUCUCUACACAUGAGGAUCACCCAUGUCUCAGGUAGGUCGCGGUACCUUAG [Exclusion Arginine B GF23]”, for which the “apparent KD of MS2 coat protein” value stood at 137 nM (input ligand: arginine 13.2 mM); 261 nM (input ligand: none); 287 nM under setting [1]; 491 nM under setting [2]; 238 nM under setting [3].

As to “CCUGAUGAGUCGGCCGCCACUCCAGUUGUAUUACAGGUUUUCGUAGACAUGAGGAUCACCCAUGUGAGGACCGGGACACACACAG [theeternabot_exclusion_MS2_Trp_B_21]”, the “apparent KD of MS2 coat protein” value is, setting by setting: (input ligand: arginine 13.2 mM) 11.7 nM; (input ligand: none) 11.3 nM; under setting [1], 23.8 nM; under setting [2], 17.4 nM; under setting [3], 17.2 nM.

Turning to “CCUUAAUAUAGAAGGAGCGCGCUAACAUGAGGAUCACCCAUGUAAAGGGUUUUGGGCUUAGCGCAGGUAGGUCGCUAUAAGAACC [Arg B Ex t2]”, the “apparent KD of MS2 coat protein” value by setting is: (input ligand: arginine 13.2 mM) 60.1 nM; (input ligand: none) 106 nM; under setting [1], 95 nM; under setting [2], 127 nM; under setting [3], 93.9 nM.

Turning to “CGAAAGCUCCUUAUGUGCUUUCGACUGGAAGGAGCGAGCGAAAGCUCAGGUAGGUCGCCAGAAACAUGAGGAUCACCCAUGUAAU [(A)''-(M)'-(A)'(Arg1)-(Arg2)-(M1)-(M2)_Design9]”, the “apparent KD of MS2 coat protein” value by setting is: (input ligand: arginine 13.2 mM) 29.8 nM; (input ligand: none) 18 nM; under setting [1], 25.6 nM; under setting [2], 27.2 nM; under setting [3], 18.5 nM.

Turning to “CGAAUACCAAUUGAUACCAGCAUGUUAACAUGAGGAUCACCCAUGUUAAGGAUAACAUAAUGCCCUUGGCAGCAACGUAAAUUCG [Aa]”, the “apparent KD of MS2 coat protein” value is, setting by setting: (input ligand: arginine 13.2 mM) 19.2 nM; under setting [1], 22.9 nM; under setting [3], 19.6 nM.

In the case of “CGACUGUAAAGUCGACCGGUCAUCAAUAAUCGAGGACCGGUACGGCCGCCACUCGAUGUGAUUUCACAUGAGGAUCACCCAUGUA [Tryptophan A 17]”, the “apparent KD of MS2 coat protein” value by setting is: (input ligand: arginine 13.2 mM) 24.1 nM; under setting [1], 26.3 nM; under setting [2], 29.1 nM.

For the sequence “CGAGUAAGAACAAUCGAAUAACGGUUUUCGCGAGGACCGGUACGGCCGCCACUCGUGUGAUAUCACACAUGAGGAUCACCCAUGU [3'end-1]”, the “apparent KD of MS2 coat protein” value (input ligand: arginine 13.2 mM) was determined as 61.3 nM, the “apparent KD of MS2 coat protein” value under setting [1] amounted to 96.7 nM and the “apparent KD of MS2 coat protein” value under setting [2] amounted to 101 nM.

On to “CGAGUAGGUUCAAUCGAAUAACGGUUUUCGCGAGGACCGGUACGGCCGCCACUCGUGUGAUAUCACACAUGAGGAUCACCCAUGU [3'end-1]”, for which the “apparent KD of MS2 coat protein” value (input ligand: arginine 13.2 mM) was 33.5 nM, the “apparent KD of MS2 coat protein” value under setting [1] amounted to 49.2 nM and the “apparent KD of MS2 coat protein” value under setting [2] came to 68 nM.

Take “CGAUAUAAGACGGCCGCCACUAUUAAGUAACAAAAUAAACAUGAGGAUCACCCAUGUACAUGGGAUAGGACCGGGUCCAAUAACG [A1]”: the “apparent KD of MS2 coat protein” value was 48.3 nM (input ligand: arginine 13.2 mM), 163 nM under setting [1] and 166 nM under setting [2].

Regarding “CGAUAUGAGGUCGAUACCAGCAGCUUCAAGCACAUGAGGAUCACCCAUGUCCAUUUUACUUGCCCUUGGCAGCGACUUUGGAAAC [theeternabot_sameState_MS2_Theo_B_23]”, the “apparent KD of MS2 coat protein” value (input ligand: arginine 13.2 mM) was found to be 36.2 nM, the “apparent KD of MS2 coat protein” value under setting [1] came out at 34.9 nM and the “apparent KD of MS2 coat protein” value under setting [3] is 38.4 nM.

Take “CGCCCAGUUACGGCCGCCACUUCGAUGGCAAAUGUCGAGCCUCCACAUGAGGAUCACCCAUGUCGAAGGACCGGGUACUGCUUGC [theeternabot_sameState_MS2_Trp_B_17]”: the “apparent KD of MS2 coat protein” value was 29.4 nM (input ligand: arginine 13.2 mM), 44.4 nM under setting [1] and 38 nM under setting [2].

For “CGCCUACAGGUGUACUAUUGUGGUGAAGAUACCAGAUAGCCCAAUAUCCCUUGGCAGCUUCAGACAUGAGGAUCACCCAUGUAUC [theeternabot_exclusion_MS2_Theo_A_30]”, the “apparent KD of MS2 coat protein” value runs as follows: (input ligand: arginine 13.2 mM) 17.8 nM; under setting [1], 18.7 nM; under setting [3], 15.5 nM.

On to “CGGCCCUCACUUGAGGAACACCCAAGUGAUACCAGCCUGGAAACAGGCCCUUGGCAGCACUAGGUCAUCAAAGAUGACCAAGCCG [TheoAX 29 #OpenEnded #AlternativeMS2]”, for which the “apparent KD of MS2 coat protein” value (input ligand: arginine 13.2 mM) came to 17.7 nM; the “apparent KD of MS2 coat protein” value (input ligand: none) came to 23.8 nM; the “apparent KD of MS2 coat protein” value under setting [1] amounted to 42.8 nM; the “apparent KD of MS2 coat protein” value under setting [2] turned out to be 373 nM; the “apparent KD of MS2 coat protein” value under setting [3] amounted to 23.1 nM.

For the sequence “CGGUUUGUGAUGGAUACCAGCAGAGAAAAUGUUUAUCCUAACAUGAGGAUCACCCAUGUAUGCCCUUGGCAGCUGUUGUGGGCUG [8.V]”, the “apparent KD of MS2 coat protein” value by setting is: (input ligand: arginine 13.2 mM) 43.3 nM; under setting [1], 80.4 nM; under setting [3], 52.5 nM.

As for “CGUAUUGGAAACAGUACGAGUGAUCCGGUCCGAGGACCGGUACGGCCGCCACUCGAAAUUAAUAAACAUGAGGAUCACCCAUGUA [Ex Tryptophan A 10]”, the “apparent KD of MS2 coat protein” value (input ligand: arginine 13.2 mM) worked out at 14.8 nM, the “apparent KD of MS2 coat protein” value under setting [1] is 19.6 nM and the “apparent KD of MS2 coat protein” value under setting [2] came to 20.2 nM.
